Assay in all cases: EMSA
What all share (conditions): tags: MBP fusion
For orientation: Mobility shift assays separate free from complexed probe on a gel.

For one series, the target named is T1, ZFP SBS#311 (synthetic).
T1 chain: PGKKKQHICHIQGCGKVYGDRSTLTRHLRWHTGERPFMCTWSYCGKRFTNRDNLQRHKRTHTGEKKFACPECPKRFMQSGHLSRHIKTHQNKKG
As to the method:
(§1) Affinity is measured by titrating purified protein against a fixed amount of labeled double-stranded oligonucleotide target. The target typically comprises the natural binding site sequence flanked by the 3 bp found in the natural sequence and additional, constant flanking sequences. The natural binding site is typically 9 bp for a three-finger protein and 2×9 bp +intervening bases for a six finger ZFP. […] For the assay the target is added at a concentration of 1 nM or lower (the actual concentration is kept at least 10-fold lower than the expected dissociation constant), purified ZFPs are added at various concentrations, and the reaction is allowed to equilibrate for at least 45 min. In addition the reaction mixture also contains 10 mM Tris (pH 7.5), 100 mM KCl, 1 mM MgCl2, 0.1 mM ZnCl2, 5 mM DTT, 10% glycerol, 0.02% BSA. (NB: in earlier assays poly d(IC) was also added at […].) The equilibrated reactions are loaded onto a 10% polyacrylamide gel, which has been pre-run for 45 min in Tris/glycine buffer, then bound and unbound labeled target is resolved by electrophoresis at 150V.

In a further series the target is ZFP SBS#309 (synthetic). On the procedure: as §1
Chain of ZFP SBS#309 (synthetic) (chain, as listed by the source): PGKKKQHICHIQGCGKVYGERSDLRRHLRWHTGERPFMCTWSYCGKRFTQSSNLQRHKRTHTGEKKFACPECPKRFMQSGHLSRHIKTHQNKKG
A further series addresses ZFP SBS#314 (synthetic). On the procedure:
as §1

The target of another series is T2, ZFP SBS#316 (synthetic).
T2 chain: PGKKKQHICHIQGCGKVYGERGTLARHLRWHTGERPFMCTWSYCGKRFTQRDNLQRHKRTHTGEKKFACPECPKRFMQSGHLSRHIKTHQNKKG
On the procedure: as §1

Another series addresses T3, ZFP SBS#312 (synthetic).
T3 chain: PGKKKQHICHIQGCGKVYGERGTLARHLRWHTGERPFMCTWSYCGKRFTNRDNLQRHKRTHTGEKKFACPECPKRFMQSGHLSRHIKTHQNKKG
As to the method: as §1

The next series deals with ZFP SBS#315 (synthetic). On the procedure:
as §1

The next series concerns the target ZFP SBS#358 (synthetic). On the procedure:
as §1

The target in another series is ZFP SBS#323 (synthetic). On the procedure: as §1
Chain of ZFP SBS#323 (synthetic) (chain, as listed by the source): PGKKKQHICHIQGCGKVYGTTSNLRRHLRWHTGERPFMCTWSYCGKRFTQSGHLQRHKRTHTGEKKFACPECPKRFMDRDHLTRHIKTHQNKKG
The next series addresses ZFP SBS#321 (synthetic). As to the method:
as §1

Another series concerns the target ZFP SBS#324 (synthetic). As to the method:
as §1

The next series addresses ZFP SBS#251 (synthetic). On the procedure:
as §1

A further series has as its target ZFP SBS#367 (synthetic). As to the method:
as §1

The target of another series is T4, ZFP SBS#381 (synthetic).
T4 chain: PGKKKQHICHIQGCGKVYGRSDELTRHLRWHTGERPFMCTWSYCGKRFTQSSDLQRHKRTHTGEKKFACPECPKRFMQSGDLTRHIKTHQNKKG
As to the method: as §1

The next series deals with T5, ZFP SBS#307 (synthetic).
T5 chain: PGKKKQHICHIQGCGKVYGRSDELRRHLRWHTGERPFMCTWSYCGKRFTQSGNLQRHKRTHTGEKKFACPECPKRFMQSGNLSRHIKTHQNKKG
On the procedure:
as §1

The next series concerns the target ZFP SBS#365 (synthetic). As to the method: as §1
The next series addresses T6, ZFP SBS#318 (synthetic).
T6 chain: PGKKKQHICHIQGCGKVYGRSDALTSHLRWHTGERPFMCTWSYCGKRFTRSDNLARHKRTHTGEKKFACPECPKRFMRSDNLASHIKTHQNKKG
As to the method:
as §1

The next series deals with T7, ZFP SBS#355 (synthetic).
T7 chain: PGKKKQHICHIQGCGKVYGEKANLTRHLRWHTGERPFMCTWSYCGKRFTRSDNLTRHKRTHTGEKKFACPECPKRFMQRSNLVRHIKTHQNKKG
As to the method: as §1

The next series concerns the target ZFP SBS#354 (synthetic). As to the method:
as §1

The target in the next series is ZFP SBS#352 (synthetic). On the procedure:
as §1

The target in another series is ZFP SBS#320 (synthetic). On the procedure:
as §1

A further series deals with ZFP SBS#319 (synthetic, UniProt P08047). As to the method: as §1
Chain of ZFP SBS#319 (P08047 other isoform, or with tags, fused parts or gaps): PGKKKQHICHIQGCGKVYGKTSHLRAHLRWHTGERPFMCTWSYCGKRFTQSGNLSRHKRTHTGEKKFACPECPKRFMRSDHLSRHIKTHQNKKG
A further series concerns the target T8, ZFP SBS#293 (synthetic).
T8 chain: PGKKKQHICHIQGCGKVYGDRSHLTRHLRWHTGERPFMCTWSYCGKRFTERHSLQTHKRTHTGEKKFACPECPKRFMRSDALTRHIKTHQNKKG
As to the method:
as §1

A further series deals with T9, ZFP SBS#297 (synthetic).
T9 chain: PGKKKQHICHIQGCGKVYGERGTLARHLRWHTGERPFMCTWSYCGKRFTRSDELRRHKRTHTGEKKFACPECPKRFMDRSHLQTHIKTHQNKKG
On the procedure:
as §1

A further series addresses T10, ZFP SBS#350 (synthetic).
T10 chain: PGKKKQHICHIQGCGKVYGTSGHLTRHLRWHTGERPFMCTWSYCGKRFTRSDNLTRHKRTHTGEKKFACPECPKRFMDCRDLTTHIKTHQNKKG
On the procedure: as §1

For another series, the target named is T11, ZFP SBS#375 (synthetic).
T11 chain: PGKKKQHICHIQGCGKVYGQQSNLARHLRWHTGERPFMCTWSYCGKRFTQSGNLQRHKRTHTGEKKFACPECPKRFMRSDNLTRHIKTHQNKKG
On the procedure:
as §1

Another series addresses T12, ZFP SBS#306 (synthetic).
T12 chain: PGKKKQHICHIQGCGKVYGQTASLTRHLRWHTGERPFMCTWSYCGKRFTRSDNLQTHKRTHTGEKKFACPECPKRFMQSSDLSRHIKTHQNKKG
As to the method:
as §1

Another series has as its target T13, ZFP SBS#304 (synthetic).
T13 chain: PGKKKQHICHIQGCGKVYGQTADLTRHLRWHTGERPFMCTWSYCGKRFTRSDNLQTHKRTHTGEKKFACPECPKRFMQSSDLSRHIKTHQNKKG
On the procedure:
as §1

In another series the target is T14, ZFP SBS#298 (synthetic).
T14 chain: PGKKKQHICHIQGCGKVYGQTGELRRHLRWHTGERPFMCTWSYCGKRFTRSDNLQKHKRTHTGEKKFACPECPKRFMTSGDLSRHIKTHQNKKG
On the procedure:
as §1

Another series has as its target T15, ZFP SBS#301 (synthetic).
T15 chain: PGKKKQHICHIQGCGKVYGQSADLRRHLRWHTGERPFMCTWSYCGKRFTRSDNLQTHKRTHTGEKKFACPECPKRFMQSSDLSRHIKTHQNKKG
As to the method:
as §1

In another series the target is ZFP SBS#299 (synthetic). As to the method:
as §1

A further series has as its target ZFP SBS#305 (synthetic). On the procedure:
as §1

The next series has as its target T16, ZFP SBS#300 (synthetic, UniProt P08047).
T16 chain: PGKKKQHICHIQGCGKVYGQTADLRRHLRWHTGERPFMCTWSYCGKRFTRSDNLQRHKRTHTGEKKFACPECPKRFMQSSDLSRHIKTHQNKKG
As to the method:
as §1

A further series concerns the target ZFP SBS#303 (synthetic). On the procedure: as §1
Another series concerns the target ZFP SBS#302 (synthetic). On the procedure: as §1
The next series concerns the target ZFP SBS#363 (synthetic). On the procedure: as §1
Another series concerns the target ZFP SBS#361 (synthetic). As to the method:
as §1

The target in the next series is T17, ZFP SBS#377 (synthetic).
T17 chain: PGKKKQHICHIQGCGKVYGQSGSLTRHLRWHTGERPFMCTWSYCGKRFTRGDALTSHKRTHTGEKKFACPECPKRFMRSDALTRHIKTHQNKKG
As to the method: as §1

Chain of ZFP SBS#361 (synthetic) (chain, as listed by the source): as the sequence (P08047 other isoform, or with tags, fused parts or gaps) above, with K20R, T21S, S22D, R25T, A26R, G52S, N53A, S55T, S83T counted along it
Chain of ZFP SBS#320 (synthetic) (chain, as listed by the source): as the sequence (P08047 other isoform, or with tags, fused parts or gaps) above, with K20R, T21S, S22D, R25T, A26R counted along it
Chain of ZFP SBS#314 (synthetic) (chain, as listed by the source): as the sequence (P08047 other isoform, or with tags, fused parts or gaps) above, with K20D, T21R, H23S, R25T, A26R, G52S, S55Q, R78Q, D80G counted along it
Chain of ZFP SBS#354 (synthetic) (chain, as listed by the source): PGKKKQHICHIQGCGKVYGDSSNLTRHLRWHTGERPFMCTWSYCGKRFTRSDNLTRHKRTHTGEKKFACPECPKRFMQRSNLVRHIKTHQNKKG
Chain of ZFP SBS#302 (synthetic) (chain, as listed by the source): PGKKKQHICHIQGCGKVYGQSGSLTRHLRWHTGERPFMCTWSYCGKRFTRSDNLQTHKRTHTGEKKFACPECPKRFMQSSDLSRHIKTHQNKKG
Chain of ZFP SBS#352 (synthetic) (chain, as listed by the source): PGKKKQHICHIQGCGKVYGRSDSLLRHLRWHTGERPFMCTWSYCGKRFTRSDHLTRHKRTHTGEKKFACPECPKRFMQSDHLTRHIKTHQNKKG
Chain of ZFP SBS#303 (synthetic) (chain, as listed by the source): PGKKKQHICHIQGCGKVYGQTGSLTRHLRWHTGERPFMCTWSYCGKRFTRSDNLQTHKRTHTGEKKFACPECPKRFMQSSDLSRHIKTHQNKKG
Chain of ZFP SBS#365 (synthetic) (chain, as listed by the source): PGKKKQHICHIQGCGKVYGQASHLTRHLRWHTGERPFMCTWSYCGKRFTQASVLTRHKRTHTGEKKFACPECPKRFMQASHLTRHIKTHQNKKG
Chain of ZFP SBS#321 (synthetic) (chain, as listed by the source): as the sequence (P08047 other isoform, or with tags, fused parts or gaps) above, with K20T, H23N, A26R, N53H, S55Q, R78D, S79R, D80S, S83T counted along it
Chain of ZFP SBS#305 (synthetic) (chain, as listed by the source): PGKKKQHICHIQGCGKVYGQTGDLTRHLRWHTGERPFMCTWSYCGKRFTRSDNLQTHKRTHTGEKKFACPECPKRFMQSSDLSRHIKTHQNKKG
Chain of ZFP SBS#324 (synthetic) (chain, as listed by the source): as the sequence (P08047 other isoform, or with tags, fused parts or gaps) above, with K20T, H23N, A26R, N53H, S55Q, R78D, S79R, S83T counted along it
Chain of ZFP SBS#358 (synthetic) (chain, as listed by the source): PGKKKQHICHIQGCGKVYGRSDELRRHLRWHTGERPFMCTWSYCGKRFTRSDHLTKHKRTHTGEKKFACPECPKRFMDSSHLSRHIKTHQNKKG
Chain of ZFP SBS#299 (synthetic) (chain, as listed by the source): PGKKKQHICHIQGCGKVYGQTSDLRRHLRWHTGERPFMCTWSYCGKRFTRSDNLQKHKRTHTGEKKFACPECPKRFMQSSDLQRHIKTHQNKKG

B1: GGAGATGCC (dsDNA)
DNA 1: GGAGATGCC
DNA 2: GGCATCTCC
Broadly, the Kd is the concentration at which binding is half-saturated. For B1, the Kd with ZFP SBS#311 is 170 nM; with ZFP SBS#309 it was 4 µM; with ZFP SBS#314, 118 nM; with ZFP SBS#316 it was 3000 nM; in the series with ZFP SBS#312 it was 2000 nM; with ZFP SBS#315, 265 nM.

B2: GGCTGGGCG (dsDNA)
DNA 1: GGCTGGGCG
DNA 2: CGCCCAGCC
Consider B2, for which, in the series with ZFP SBS#358, the Kd came out at 225 nM.

B3: GGCGGAGAT (dsDNA)
DNA 1: GGCGGAGAT
DNA 2: ATCTCCGCC
As for B3, the Kd was 600 nM in the series with ZFP SBS#323, 200 nM with ZFP SBS#321 and 200 nM in the series with ZFP SBS#324.

B4: GCGGAGGCG (dsDNA)
DNA 1: GCGGAGGCG
DNA 2: CGCCTCCGC
Regarding B4, the Kd with ZFP SBS#251 was determined as 27.5 nM.

B5: GGGGGCGGG (dsDNA)
DNA 1: GGGGGCGGG
DNA 2: CCCGCCCCC
B5 registered a Kd with ZFP SBS#367 of 60 nM.

B6: GCAGCTGCGC (dsDNA)
DNA 1: GCAGCTGCGC
DNA 2: GCGCAGCTGC
B6 showed a Kd with ZFP SBS#381 of 1.5 nM.

B7: GAAGAAGCG (dsDNA)
DNA 1: GAAGAAGCG
DNA 2: CGCTTCTTC
As for B7, the Kd in the series with ZFP SBS#307 was found to be 50.5 nM. In other words, the double-digit nanomolar range.

B8: GGTGCTGGT (dsDNA)
DNA 1: GGTGCTGGT
DNA 2: ACCAGCACC
In turn, B8 displayed a Kd with ZFP SBS#365 of 600 nM. This lies in the sub-micromolar range.

B9: TAGGAGATGC (dsDNA)
DNA 1: TAGGAGATGC
DNA 2: GCATCTCCTA
As for B9, the Kd with ZFP SBS#318 stood at 100 nM.

B10: GAAGAGGAC (dsDNA)
DNA 1: GAAGAGGAC
DNA 2: GTCCTCTTC
For the molecule B10, the values for the Kd in the series with ZFP SBS#355 and with ZFP SBS#354 were 20 nM and 28 nM, respectively.

B11: GGAGGGGTG (dsDNA)
DNA 1: GGAGGGGTG
DNA 2: CACCCCTCC
In the case of B11, the affinity in the series with ZFP SBS#352, expressed as Kd, was 26 nM.

B12: GGGGAAGGG (dsDNA)
DNA 1: GGGGAAGGG
DNA 2: CCCTTCCCC
B12: the results for the Kd with ZFP SBS#320 and with ZFP SBS#319 were 5 nM and 125 nM, respectively.

B13: GTGTGCGGC (dsDNA)
DNA 1: GTGTGCGGC
DNA 2: GCCGCACAC
For B13, the Kd with ZFP SBS#293 worked out at 320 nM.

B14: TGCGCGGCC (dsDNA)
DNA 1: TGCGCGGCC
DNA 2: GGCCGCGCA
As for B14, in the series with ZFP SBS#297, the Kd was 500 nM.

B15: TCCGAGGGT (dsDNA)
DNA 1: TCCGAGGGT
DNA 2: ACCCTCGGA
B15 came in with a Kd with ZFP SBS#350 of 332 nM.

B16: GAGGAAGAT (dsDNA)
DNA 1: GAGGAAGAT
DNA 2: ATCTTCCTC
Molecule B16 returned a Kd in the series with ZFP SBS#375 of 85 nM.

B17: GCTTAGGCA (dsDNA)
DNA 1: GCTTAGGCA
DNA 2: TGCCTAAGC
Consider B17, for which the Kd with ZFP SBS#306 worked out at 280 nM; with ZFP SBS#304, 230 nM; with ZFP SBS#298, 4 µM; in the series with ZFP SBS#301 it was 350 nM; in the series with ZFP SBS#299, 4 µM; with ZFP SBS#305, 230 nM. The results for the Kd with ZFP SBS#300, with ZFP SBS#303 and with ZFP SBS#302 were 400 nM, 135 nM and 75 nM, respectively.

B18: GGGTTTGGG (dsDNA)
DNA 1: GGGTTTGGG
DNA 2: CCCAAACCC
With B18, the Kd came to 200 nM in the series with ZFP SBS#363 and 130 nM with ZFP SBS#361.

B19: GTGTTGGCAG (dsDNA)
DNA 1: GTGTTGGCAG
DNA 2: CTGCCAACAC
Regarding B19, binding with ZFP SBS#377 was characterised by a dissociation constant (Kd) of 89 nM.
